The record followed here is patent US20230203185A1 (ECO ANIMAL HEALTH, published 2023).

Test [1] concerns the target T1, porcine CD163 with deletion of SRCR domain 5 on porcine alveolar macrophages (porcine, UniProt Q2VL90 47-1115).
T1 construct: also called PAM CD163-d5; pPAMΔ5 domain
T1 sequence: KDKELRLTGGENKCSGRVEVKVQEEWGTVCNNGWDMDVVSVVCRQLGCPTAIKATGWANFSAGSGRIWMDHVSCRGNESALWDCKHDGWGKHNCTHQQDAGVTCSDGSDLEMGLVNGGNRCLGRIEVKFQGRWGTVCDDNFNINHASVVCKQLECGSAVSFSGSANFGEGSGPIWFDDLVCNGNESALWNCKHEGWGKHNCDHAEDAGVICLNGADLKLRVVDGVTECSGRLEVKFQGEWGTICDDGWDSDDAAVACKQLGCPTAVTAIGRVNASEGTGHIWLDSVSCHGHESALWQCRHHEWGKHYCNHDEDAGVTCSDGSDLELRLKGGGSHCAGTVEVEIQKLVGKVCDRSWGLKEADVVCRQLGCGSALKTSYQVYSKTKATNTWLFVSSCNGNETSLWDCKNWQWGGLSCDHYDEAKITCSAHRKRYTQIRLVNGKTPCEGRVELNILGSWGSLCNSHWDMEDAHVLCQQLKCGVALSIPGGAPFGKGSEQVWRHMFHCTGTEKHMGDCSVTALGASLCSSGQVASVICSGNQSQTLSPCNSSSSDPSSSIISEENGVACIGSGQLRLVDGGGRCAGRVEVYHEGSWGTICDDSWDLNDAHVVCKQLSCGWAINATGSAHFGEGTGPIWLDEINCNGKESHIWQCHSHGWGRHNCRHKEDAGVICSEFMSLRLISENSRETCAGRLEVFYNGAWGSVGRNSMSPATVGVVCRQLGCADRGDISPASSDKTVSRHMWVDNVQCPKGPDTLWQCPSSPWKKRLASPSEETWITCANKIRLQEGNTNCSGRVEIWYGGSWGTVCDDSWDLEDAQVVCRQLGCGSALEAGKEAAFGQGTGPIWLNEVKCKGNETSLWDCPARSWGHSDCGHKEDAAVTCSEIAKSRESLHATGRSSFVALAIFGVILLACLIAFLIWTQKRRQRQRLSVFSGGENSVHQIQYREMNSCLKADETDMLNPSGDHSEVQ
Nature of the test: flow cytometry on PAM with deletion of SRCR5. As to the method:
Periplasmic Extract (P.E) from the selected clones were incubated with anti-c-myc antibody (Roche; Cat. nr. 11667203001), specific to the c-myc tag present in the soluble VHH, for 30 minutes with agitation at room temperature (RT). The mix (P.E + anti-c-myc antibody) was added to the pPAM or pPAMΔ5 domain (cells with deletion of SRCR domain 5) and incubated for 60 min at 4° C. with gentle shaking.
Cells were washed 3x with 150 µl/well of FACS Buffer and incubated with 50 µl/well of the secondary antibody GAM-APC for 30 min at 4° C. and protected from the light, with shaking.
In general terms: Flow cytometry measures light scatter and fluorescence of single cells or particles in a stream.

The next test concerns the target T2, pCD163-SRCR4-7-huFc (porcine, UniProt Q2VL90 372-818, limits assumed).
T2 construct: also called pCD163:SRCR4-7-Fc; pCD163-SRCR4-7-Fc; not shown: human Fc (huFc)
Nature of the test: SPR (Biacore 3000), antigen amine-coupled on CM5, VHH injected, pH 7.4. How it is done: To assess the affinity of selected purified clones to pCD163, pCD163-SRCR1-9-huFc or pCD163-SRCR4-7-huFc proteins were coated by amine coupling on a CM5 sensor ship (GE Healthcare). Surface plasmon resonance (SPR) (Biacore 3000, GE Healthcare) was used to determine the binding kinetics of selected single domain antibodies at pH7.4. Approximately 2000 RU of pCD163-SRCR1-9-huFc or pCD163-SRCR4-7-huFc, proteins at 20 or 30 µg/ml in Acetate buffer pH 5.0 or pH 5.5 were immobilized onto a CM5 chip using the standard amine coupling procedure.
1x HBS-EP pH 7.4, were utilized as a running buffer during binding kinetic measurements. Purified VHH were injected at 3-fold dilution (300 nM; 100 nM; 33 nM; 11 nM; 3.7 nM; 1.2 nM; 0.4 nM; 0 nM), for 120 s, at a flow rate of 30 µl/min. RU levels were restored to base levels after regeneration with 10 µl of 10 mM NaOH / 1 M NaCl and 10 µl of 10 mM Glycine pH 1.5 between samples. Fitting 1:1 binding with mass transfer was applied to the set sample curves using the simultaneous fitting option of the BIAevaluation software to calculate the kinetic constants of the antibody-antigen interactions including association rate (ka), dissociation rate (kd) and affinity (KD). Curves were removed from the fitting after visual examination of the residuals and considering the value of Chi2: a minimum of 4 curves were considered for the simultaneous fitting.
For orientation: SPR reads the build-up and loss of mass on a sensor chip optically.

T2 sequence (Q2VL90 372-818 limits assumed): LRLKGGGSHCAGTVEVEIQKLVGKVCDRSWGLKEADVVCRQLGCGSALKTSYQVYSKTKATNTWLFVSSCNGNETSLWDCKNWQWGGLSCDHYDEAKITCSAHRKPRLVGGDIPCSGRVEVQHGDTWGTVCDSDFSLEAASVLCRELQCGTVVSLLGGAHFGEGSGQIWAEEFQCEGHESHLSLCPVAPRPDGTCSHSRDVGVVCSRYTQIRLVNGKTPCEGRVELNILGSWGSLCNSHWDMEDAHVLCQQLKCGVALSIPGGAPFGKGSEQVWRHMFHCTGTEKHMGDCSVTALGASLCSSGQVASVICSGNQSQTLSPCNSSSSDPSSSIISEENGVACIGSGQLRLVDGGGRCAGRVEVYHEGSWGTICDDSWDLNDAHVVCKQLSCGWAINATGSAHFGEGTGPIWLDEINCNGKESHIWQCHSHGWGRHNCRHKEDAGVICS

B1: VHH 023 (4E10) (VHH)
VHH: QVQLVESGGGLVQAGGSLRLSCVASSRTSSTYAMGWFRQGPGKERDFVAIISFGGTFYADSVKGRFTISRDNAKNTVYLQMNSLKPEDTAVYYCAAGRTLSKRADSYASWGQGTQVTVSS
notes: Llama single domain antibody; also called 70(#23); VHCDR3 70(#23); not shown: tags: c-myc tag in periplasmic extract (ELISA, FACS); FLAG and His tags in purified VHH (SPR, infection assays)
With B1, the binding result in test [1] was “no binding”. In the test with pCD163-SRCR4-7-huFc, binding was characterised by a dissociation constant (Kd) of 1.52 nM; the koff (commonly the first-order rate constant of dissociation) was found to be 0.00755 s⁻¹; the kon (as a rule, the rate constant with which the complex forms) was 4.96e+06 M⁻¹ s⁻¹.

B2: VHH 012 (2C07) (VHH)
VHH: QLQLVESGGGLVQAGGSLRLSCVASGRTFSRYAMGWFRQAPGKEREFVAAIAWSTGSTYYANSVKGRFAISGDNAKNTVYLQMNSLKPEDTAVYYCAAETRYCSGFGCLDPRTYGSWGQGTQVTVSS
notes: Llama single domain antibody; also called 41(#12); VHCDR3 41(#12); not shown: tags: c-myc tag in periplasmic extract (ELISA, FACS); FLAG and His tags in purified VHH (SPR, infection assays)
Take B2: the binding result in test [1] was “no binding”. For the same molecule, in the test with pCD163-SRCR4-7-huFc, the dissociation constant (Kd) (in general, the constant that tells how readily two partners part at equilibrium) stood at 1.51 nM; the koff turned out to be 0.00426 s⁻¹; the kon was 2.83e+06 M⁻¹ s⁻¹.

B3: VHH 001 (1B02) (VHH)
VHH: EVQLVESGGGLVQAGGSLSLSCAASGGTLAMYAMSWFRQAPGKDRKFVAAINTSGRYSRYADSVKGRFTISRDNAKNTATLQMNSLEPEDTAVYYCAATDKGNWALAMSYDYWGQGTQVTVSS
notes: Llama single domain antibody; also called 144(#1); VHCDR3 144(#1); not shown: tags: c-myc tag in periplasmic extract (ELISA, FACS); FLAG and His tags in purified VHH (SPR, infection assays)
As to B3, the binding result in test [1] is “no binding”. In the test with pCD163-SRCR4-7-huFc, this molecule displayed a Kd of 9.26 nM, a koff of 0.0227 s⁻¹ and an association rate constant (kon) of 2.46e+06 M⁻¹ s⁻¹.

B4: VHH 002 (1B04) (VHH)
VHH: QVQLVESGGGLVQAGGSLRLSCAASGLTFVTYSMGWFRQAPGKEREFVAAHRWSGSAYYAEHADSVEGRFTISRDYAKNMLYLQMNSLKHEDTAVYYCAAGVGSAAQYRYWGRGTQVTVSS
notes: Llama single domain antibody; also called 76(#2); VHCDR3 76(#2); not shown: tags: c-myc tag in periplasmic extract (ELISA, FACS); FLAG and His tags in purified VHH (SPR, infection assays)
Regarding B4, in test [1], the binding result was “no binding”. In the test with pCD163-SRCR4-7-huFc, this molecule yielded a Kd of 19 nM, a koff of 0.0149 s⁻¹ and an association rate constant (kon) of 787000 M⁻¹ s⁻¹.

B5: VHH 008 (1H01) (VHH)
VHH: QVQLVESGGGLVQAGGSLRLSCAASGRTFGTYSMGWFRQAPGKEREFVAAHRWSGSAYYAEHADSVEGRFTISRDYAKNMLYLQMNSLKHEDTAVYYCAAGVGSEAQYRYWGRGTQVTVSS
notes: Llama single domain antibody; also called 78(#8); VHCDR3 78(#8); not shown: tags: c-myc tag in periplasmic extract (ELISA, FACS); FLAG and His tags in purified VHH (SPR, infection assays)
For B5, the binding result in test [1] was “no binding”. In the test with pCD163-SRCR4-7-huFc, this molecule gave a Kd of 34.7 nM, a koff of 0.00542 s⁻¹ and a kon of 156000 M⁻¹ s⁻¹.

B6: VHH 016 (2H11) (VHH)
VHH: EVQLVESGGGLVQAGGSLRLSCAASGRTFAPGSMGWFRQAPGKEREFVAAHRWSGSAYYADYADSVEGRFTISRDYAKNMVYLQMNSLKPGDTAVYYCAAGVGSAAQYTYWGRGTQVTVSS
notes: Llama single domain antibody; also called 77(#16); VHCDR3 77(#16); not shown: tags: c-myc tag in periplasmic extract (ELISA, FACS); FLAG and His tags in purified VHH (SPR, infection assays)
As for B6, the binding result in test [1] is reported as “no binding”. In the test with pCD163-SRCR4-7-huFc, this molecule returned a Kd of 30 nM, a koff of 0.00674 s⁻¹ and a kon of 224000 M⁻¹ s⁻¹.

B7: VHH 011 (2B06) (VHH)
VHH: EVQLVESGGGLVQAGGSLRLSCAASGRTLSVYGTGWFRQAPGKEREFVAGISGTTGSTLYADSVKGRFTISRDNAKNTVYLQMNSLKSEDTALYYCAAGGRVYITTSSWAYWGQGTQVTVSS
notes: Llama single domain antibody; also called 57(#11); VHCDR3 57(#11); not shown: tags: c-myc tag in periplasmic extract (ELISA, FACS); FLAG and His tags in purified VHH (SPR, infection assays)
Consider B7, for which the binding result in test [1] is reported as “no binding”. In the test with pCD163-SRCR4-7-huFc, this molecule returned a Kd of 34.5 nM, a koff of 0.0151 s⁻¹ and an on-rate constant (kon) of 437000 M⁻¹ s⁻¹.

B8: VHH 017 (3D03) (VHH)
VHH: QLQLVESGGGLVQPGGSLRLSCAASGFTLDDYTIGWFRQAPGKEREGVSCINSITSNTYYADSVKGRFTISRDNAKNTVYLQMNSLTAEDTAIYYCAADSGLFSGSSCLKYRAMRFGSWGQGTQVTVSS
notes: Llama single domain antibody; also called 29(#17); VHCDR3 29(#17); not shown: tags: c-myc tag in periplasmic extract (ELISA, FACS); FLAG and His tags in purified VHH (SPR, infection assays)
In the case of B8, in test [1], the binding result is reported as “no binding”. Also, in the test with pCD163-SRCR4-7-huFc, binding was put at a Kd of 22.6 nM, the off-rate constant (koff) was 0.00345 s⁻¹ and the kon is 153000 M⁻¹ s⁻¹.

B9: VHH 015 (2G01) (VHH)
VHH: QVQLVESGGGLVQAGDTLRLSCTASGRTFSSYSMGWFRQAPGKEREFVAAITWNGYITNYADSVKGRFTISRDNTKNTVFLQMNSLKPEETAVYYCAATTFSTTSPISRTYNYWGPGTQVTVSS
notes: Llama single domain antibody; also called 150(#15); VHCDR3 150(#15); not shown: tags: c-myc tag in periplasmic extract (ELISA, FACS); FLAG and His tags in purified VHH (SPR, infection assays)
Regarding B9, the binding result in test [1] is “no binding”. In the test with pCD163-SRCR4-7-huFc, this molecule showed a Kd of 8.01 nM, an off-rate constant (koff) of 0.00442 s⁻¹ and a kon of 551000 M⁻¹ s⁻¹.

B10: VHH 018 (3E01) (VHH)
VHH: QVQLQESGGGLVQVGGSLRLSCVASGRAPSRYVMGWFRQAPGQEREFVAGIAWSGRAPYADSVKGRSTISRDNAKNTVYLQMNSLKPEDTGVYYCAGGEGAIRWTTLDAYDYWGQGTQVTVSS
notes: Llama single domain antibody; also called 49(#18); VHCDR3 49(#18); not shown: tags: c-myc tag in periplasmic extract (ELISA, FACS); FLAG and His tags in purified VHH (SPR, infection assays)
On to B10, for which the binding result in test [1] is given as “no binding”. In the test with pCD163-SRCR4-7-huFc, this molecule came in with a Kd of 42 nM, a koff of 0.0121 s⁻¹ and a kon of 288000 M⁻¹ s⁻¹.

B11: VHH 019 (3E11) (VHH)
VHH: QVQLQESGGGLVQVGSSLRLSCVTSGRTPSRYVMGWFRQAPGQEREFVAAISWSGRAPYADSVKGRFTISRDNAKNTVYLQMNSLKPEDTGVYYCAGGEGAIKWTTLDAYDYWGQGTQVTVSS
notes: Llama single domain antibody; also called 47(#19); VHCDR3 47(#19); not shown: tags: c-myc tag in periplasmic extract (ELISA, FACS); FLAG and His tags in purified VHH (SPR, infection assays)
Consider B11, for which the binding result in test [1] was “no binding”. In the test with pCD163-SRCR4-7-huFc, this molecule displayed a Kd of 21.1 nM, a koff of 0.0103 s⁻¹ and a kon of 487000 M⁻¹ s⁻¹.

B12: VHH 020 (3H11) (VHH)
VHH: QVQLQESGGGLVQVGGSLRLSCVASGRTPSRYVMGWFRQAPGQEREFVAGIAWSGRAPYADSVKGRFVISRDSAKNTVYLQMNSLKSEDTGVYYCAGGEGAILWTTPGAYNYWGQGTQVTVSS
notes: Llama single domain antibody; also called 48(#20); VHCDR3 48(#20); not shown: tags: c-myc tag in periplasmic extract (ELISA, FACS); FLAG and His tags in purified VHH (SPR, infection assays)
On to B12, for which the binding result in test [1] is “no binding”. In the test with pCD163-SRCR4-7-huFc, this molecule returned a dissociation constant (Kd) of 18.2 nM, a koff of 0.00843 s⁻¹ and a kon of 462000 M⁻¹ s⁻¹.
